Assay results: the supplement of paper PMC12042874
± gives the uncertainty stated by the source.

Assay: amyloid nucleation score (Sup35N fusion, yeast selection) (log enrichment); library NNK2; higher = more nucleation; inactive = no reads after selection
How it was run: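 Yeast lacking psi expressed peptides of 20 random codons fused to Sup35N, received 100 μM copper sulfate for 24 hours, and were then grown for 7 days at 30°C on medium lacking adenine and uracil. Illumina sequencing of input and output plasmid inserts provided the reads. Nucleation scores are DiMSum log enrichments of output over input, centred on the mode of non-aggregating sequences. Any sequence with under 100 input reads was excluded.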

Substance	amyloid nucleation score
VLSEYGDTNYKIQGRATCGK	0.928 ± 0.6
VLSNSEYVFTNR	-0.5 ± 0.28
VLSRFLASKRNCPVPDSLG	0.093 ± 0.29
VLTNKLQVTVCLLC	8.448 ± 0.046
VMALSIMTMGTSVGFRDNGG	4.38 ± 0.071
VMCEEGLALRRCTGWLMFTG	1.11 ± 0.28
VMIMVEVNPWGRCGRRRERS	9.613 ± 0.052
VMIVFLDAFFGNLRANVVWY	-0.846 ± 0.49
VMLNWKMVYRTRDFNLQSYD	1.85 ± 0.15
VMMIQTVQFRLTSKSSGMSR	5.259 ± 0.043
VMRNKILF	-0.341 ± 0.79
VMRVT	5.22 ± 0.081
VMSFTASA	0.607 ± 0.51
VMVFVCVAYEYEFSPIRGPE	inactive
VMWKEFLPGILCGCCKLGFS	-0.481 ± 0.33
VMWRTRGTACSLIVRWVGMG	0.822 ± 0.25
VNAVSKGTCLLIWFRDFVAY	-0.113 ± 1.1
VNCCDFVVC	-0.063 ± 0.49
VNFFNLINRRGTPNRWFYAS	0.201 ± 1
VNKILQEYMACRRNLQTQMW	-0.215 ± 0.3
VNLFVLDSRTNGVCFWELMT	-0.452 ± 0.55
VNLGSGAVEPTTLRKFGLTR	4.28 ± 0.06
VNLITGIMYI	inactive
VNLSCPVMNRTSMMCVVYLH	7.799 ± 0.052
VNLSDDCELVYRSCEVLLNY	-1.34 ± 1.1

Substance	amyloid nucleation score
VNLVYSYFNISGWIEFSSLC	2.98 ± 0.053
VNMFSFHYFHSVMRFLFYRW	-0.751 ± 0.41
VNNNLLNASLAMVSM	inactive
VNSEISDYLHDGDGSRVRSI	-0.025 ± 0.79
VNSFIDDSCLGMANPLPYWS	-1.03 ± 1
VNSSFLLGFCLRIMNHV	inactive
VNSVMARMITCTSVVGCKYW	-0.259 ± 0.19
VNVPYIRMIDHLLTYTQL	-0.081 ± 1.1
VNWLFACVELR	0.365 ± 0.36
VNYFVRGTVSK	0.074 ± 0.74
VPFGNESWLYTR	-1.06 ± 0.64
VPFYVFSVIGMIYMHGWVEW	-0.748 ± 0.56
VPISHLNCYFFW	8.686 ± 0.084
VPLHDARTRM	0.637 ± 0.24
VPQLSLQLVQRIFGFPSVIL	-0.288 ± 0.41
VPRLILSIYFIICLTTQEAV	-0.24 ± 0.65
VPSRGLF	0.815 ± 0.4
VPSRS	0.172 ± 0.65
VPSSNFVWVFLRLKS	-0.996 ± 0.49
VPYGRAGFVTTYAVCCYNCK	-0.47 ± 1.1
VPYSICSKSSRESCRYVWYG	3.79 ± 0.053
VQICLGNPNWGNPANRSFVV	1.95 ± 0.2
VQLWYILITKMVR	-1.02 ± 1
VQYLVDCMYWVQGMAVSE	0.475 ± 0.46
VRARYASLCHGIAAEGIVGV	0.506 ± 0.28

Substance	amyloid nucleation score
VRGSNV	-0.637 ± 0.33
VRKSFLCCKQMGLLF	-1.14 ± 0.64
VRLFTVGWRSGKNVGNTSDA	-0.263 ± 1.1
VRLLLYWVAVRWRETDCCCS	0.315 ± 0.48
VRMMCLQGATTGATNSPSNR	-0.526 ± 0.37
VRNGWCTSWNSTAN	0.974 ± 0.52
VRPCRP	1.49 ± 0.55
VRRCIVRI	0.267 ± 0.4
VRSLKTHRFPFLCERSKFMG	-0.987 ± 0.38
VRWIKVFHFP	-0.784 ± 0.76
VSAKNIMSSAAER	0.451 ± 0.35
VSCLTAPILSMENPSEEYVG	1.55 ± 0.35
VSDLKVAQNCANKVIKLRYR	5.01 ± 0.072
VSDLRRMKDGC	inactive
VSFRHQCWNACNSDSVGEEI	0.892 ± 0.48
VSIRDVVGQYSINRVICRSY	-0.774 ± 0.54
VSITISTTCSNKGS	1.29 ± 0.22
VSLLCIFVAYGNWVMNGDDP	-0.136 ± 0.62
VSLMFSGVIWAIWLMLFGVG	1.13 ± 0.61
VSLWLYISMQCTRLSRRDQG	0.22 ± 0.65
VSMSRGL	inactive
VSPLALDQVTVSMVAMGIEG	0.999 ± 0.29
VSRSSKMMFFVDHLRYC	1.55 ± 0.58
VSSVRCNRVAYNPASGRGRR	-0.124 ± 0.55
VSSWGMYYWFS	0.06 ± 0.44

Substance	amyloid nucleation score
VSVLI	0.45 ± 0.44
VSYFPYRDVLGTINNV	0.729 ± 0.54
VTDWACGMILIYVLRKILVM	0.461 ± 0.47
VTGNKEVMKIRCWVAHEESY	0.436 ± 0.49
VTGYGSLYYGVKTRG	-0.295 ± 0.55
VTIEFATHLWGVMY	4.78 ± 0.072
VTTSTLMYWRGRTGALLAPS	1.84 ± 0.22
VVCLPVISLCWIFLHIIF	inactive
VVDCMCSGLHWVQVGILSQP	1.19 ± 0.39
VVEICFYW	6.258 ± 0.034
VVFFNGACALATLAAVSLGP	6 ± 0.062
VVGPFHFIVMMKVSKVRVKL	6.212 ± 0.039
VVIFCVVFWV	0.129 ± 0.76
VVLTHY	0.386 ± 0.34
VVMLVRT	3.87 ± 0.064
VVNLIVKDDPWEGWLKSLVW	2.46 ± 0.18
VVRLSSYNASTPLSVSFRRG	-0.171 ± 0.74
VVRVCRQGCLSNLSWCGWGE	-0.1 ± 1
VVSKDDRDGNV	3.14 ± 0.044
VVSYFCCLDCSLNAYS	9.384 ± 0.043
VVTNCAALVNWRFFYLCNSY	3.93 ± 0.054
VVVSVCSPLK	0.258 ± 0.46
VVYFFFCLDMVMTGF	4.65 ± 0.087
VWIGAAGGDFDSCRG	1.29 ± 0.43
VWQVGQQRY	0.899 ± 0.17

Substance	amyloid nucleation score
VWSNLSVRLRHI	-0.196 ± 1
VWSSMSFTSLFVIISLSNYS	2.88 ± 0.13
VWTCIVFSR	6.22 ± 0.074
VWTIPRS	0.012 ± 0.5
VWVVCEFLAVVPKTKIFRTD	0.721 ± 0.66
VWWGSMHAVC	0.652 ± 0.31
VYAFLYFWGFRHGVVYV	-0.099 ± 0.44
VYCHRLNIILIGRVFCSEDI	0.062 ± 0.55
VYCLSVMSARSQFCVWGWML	0.165 ± 1
VYENKIA	0.313 ± 0.47
VYIFQGMR	-0.302 ± 0.46
VYIWSCCVKSFESSTFDDDN	7.972 ± 0.074
VYLKIAGTVIDRFTAHVLLM	-1.43 ± 0.75
VYLVKAGLYSRMNQLLPLCS	0.607 ± 0.34
VYMKFMGMMQHFIKLKSRDL	inactive
VYRFSAAARLDWIDRVNLCN	0.868 ± 0.58
VYRLTRVISEWRSILVLVWT	0.328 ± 0.42
VYSLFSYLRDTLVV	-0.534 ± 0.74
VYTHSGIVY	-0.82 ± 0.62
VYTSYGSRSFTFNRFNAWTD	-0.97 ± 0.78
VYWWVANV	1.99 ± 0.26
VYYWHEYFIDWY	-1.27 ± 1.1
WAATITDRYRCL	0.35 ± 0.35
WAEPYFRCDGSSRIFSQGNA	inactive
WALLGFLDYKLFLTAEVFSA	-0.498 ± 1.1

Substance	amyloid nucleation score
WAQSNISETSYHVGSLLSVA	0.016 ± 0.32
WAWIHSADLNYNCVMRGCLP	2.16 ± 0.14
WCGLISASYTLIHSNRFMKL	-1.04 ± 1.1
WCVMLGLGSQGSRILRVLRM	0.29 ± 0.29
WDIRVVVSVRCNMQVYLFVC	0.581 ± 0.51
WDSFLRLDFSMLSVLRREPR	2.98 ± 0.18
WDSSPGISVVSIRLEQ	5.431 ± 0.036
WDSVRSWKPFPHTSNKWFIL	-0.679 ± 0.48
WDVKRIRKVSFDFVSRGWKG	-0.293 ± 0.32
WEDGTFEV	-0.219 ± 0.61
WEGLSGTSLVLSQCFAPFSS	2.17 ± 0.12
WESCWIHLFHLSIHLTTNFY	2.08 ± 0.088
WESLVETSSTLFLRECYNVF	-1.86 ± 0.53
WFACSLVAYRVLSSGTKAVM	0.204 ± 0.34
WFFTSS	-0.526 ± 0.76
WFLCWYSTPTLGCCKKEGSA	0.056 ± 0.33
WFMFDFFYF	inactive
WFTAVVLNS	0.333 ± 0.25
WFVGFSMAYWNERDAGRPGM	1.8 ± 0.15
WFVTNGCFYSLCLTHG	5.996 ± 0.028
WGCHRLEATVLLCVRVCIDC	-0.263 ± 1.1
WGESHWVASFFKFVRGSWDG	-0.112 ± 0.54
WGHANFAEVWNDP	0.385 ± 0.6
WGHRVDCIFKSNLSA	-0.878 ± 0.31
WGNHSYLTVYRFFIRNWDVI	-0.81 ± 0.55

Substance	amyloid nucleation score
WHNDSTG	0.619 ± 0.22
WHQLKSTPLHFYSINTASFN	0.123 ± 0.6
WHSVHYNLFCCF	8.689 ± 0.041
WIIHMSSEAYYPSSFGRIVI	-0.872 ± 1.1
WIMVI	-0.124 ± 0.26
WIQKPGLFASNGATATGGHV	0.395 ± 0.56
WITVVRLIYLAFFQTGST	-0.867 ± 0.63
WKLAHISLDFHFLYSR	-0.269 ± 0.61
WKVSLGWNSHMCAGMETLWM	4.18 ± 0.048
WLASPGDSSFMCLNVVVAAV	0.723 ± 0.5
WLEDAS	-0.557 ± 1.1
WLFSMRGGDAPKSKRRSIHH	4.96 ± 0.1
WLFTRRTLVWQSTHPNVMTT	inactive
WLIFLTVISISCCDQGVRF	7.401 ± 0.028
WLIMT	inactive
WLIRL	inactive
WLKNKLMLVLFTESLPNRSP	-1.02 ± 0.61
WLNLGMNLLLE	3.77 ± 0.093
WLQAHGIVYLNICRNSGFVH	5.12 ± 0.058
WLRVTRLEIWQGKFSTNELT	-0.755 ± 1.1
WLSDRASCYRESRCVEQ	-0.742 ± 0.42
WLSSGAVRVKGCGFYNSRYN	inactive
WLWLND	-0.661 ± 1.1
WMGNLLGVRFMIKMIGYRAL	inactive
